{
  "source": "the Human Domainome abundance scans (Beltran et al. 2025)",
  "parents": {"B1": {"name": "POU domain, class 3, transcription factor 1, residues 247 to 324; numbered along this chain, Q03052 (parent)", "chain": "EDAPSSDDLEQFAKQFKQRRIKLGFTQADVGLALGTLYGNVFSQTTICRFEALQLSFKNMCKLKPLLNKWLEETDSSS"}},
  "note": "± gives the uncertainty stated by the source.",
  "data": [
    {"variants_of": "B1", "test": "abundance fitness (aPCA) (normalised: wild type 0, dead -1); higher = more abundant; growth selection in yeast, the domain comes from the species named", "settings": "Homo sapiens", "values": [
      {"variant": "EDATSSDDLEQFAKQFKQRRIKLGFTQADVGLALGTLYGNVFSQTTICRFEALQLSFKNMCKLKPLLNKWLEETDSSS", "note": "[P4T]", "abundance fitness": "0.019 ± 0.083"},
      {"variant": "EDAWSSDDLEQFAKQFKQRRIKLGFTQADVGLALGTLYGNVFSQTTICRFEALQLSFKNMCKLKPLLNKWLEETDSSS", "note": "[P4W]", "abundance fitness": "0.066 ± 0.062"},
      {"variant": "EDAGSSDDLEQFAKQFKQRRIKLGFTQADVGLALGTLYGNVFSQTTICRFEALQLSFKNMCKLKPLLNKWLEETDSSS", "note": "[P4G]", "abundance fitness": "-0.098 ± 0.052"},
      {"variant": "EDACSSDDLEQFAKQFKQRRIKLGFTQADVGLALGTLYGNVFSQTTICRFEALQLSFKNMCKLKPLLNKWLEETDSSS", "note": "[P4C]", "abundance fitness": "0.126 ± 0.099"},
      {"variant": "EDAYSSDDLEQFAKQFKQRRIKLGFTQADVGLALGTLYGNVFSQTTICRFEALQLSFKNMCKLKPLLNKWLEETDSSS", "note": "[P4Y]", "abundance fitness": "0.169 ± 0.26"},
      {"variant": "EDAASSDDLEQFAKQFKQRRIKLGFTQADVGLALGTLYGNVFSQTTICRFEALQLSFKNMCKLKPLLNKWLEETDSSS", "note": "[P4A]", "abundance fitness": "0.008 ± 0.067"},
      {"variant": "EDAISSDDLEQFAKQFKQRRIKLGFTQADVGLALGTLYGNVFSQTTICRFEALQLSFKNMCKLKPLLNKWLEETDSSS", "note": "[P4I]", "abundance fitness": "0.13 ± 0.16"},
      {"variant": "EDAESSDDLEQFAKQFKQRRIKLGFTQADVGLALGTLYGNVFSQTTICRFEALQLSFKNMCKLKPLLNKWLEETDSSS", "note": "[P4E]", "abundance fitness": "-0.043 ± 0.079"},
      {"variant": "EDAMSSDDLEQFAKQFKQRRIKLGFTQADVGLALGTLYGNVFSQTTICRFEALQLSFKNMCKLKPLLNKWLEETDSSS", "note": "[P4M]", "abundance fitness": "0.032 ± 0.081"},
      {"variant": "EDADSSDDLEQFAKQFKQRRIKLGFTQADVGLALGTLYGNVFSQTTICRFEALQLSFKNMCKLKPLLNKWLEETDSSS", "note": "[P4D]", "abundance fitness": "-0.134 ± 0.12"},
      {"variant": "EDANSSDDLEQFAKQFKQRRIKLGFTQADVGLALGTLYGNVFSQTTICRFEALQLSFKNMCKLKPLLNKWLEETDSSS", "note": "[P4N]", "abundance fitness": "-0.403 ± 0.23"},
      {"variant": "EDAKSSDDLEQFAKQFKQRRIKLGFTQADVGLALGTLYGNVFSQTTICRFEALQLSFKNMCKLKPLLNKWLEETDSSS", "note": "[P4K]", "abundance fitness": "-0.114 ± 0.091"},
      {"variant": "EDAFSSDDLEQFAKQFKQRRIKLGFTQADVGLALGTLYGNVFSQTTICRFEALQLSFKNMCKLKPLLNKWLEETDSSS", "note": "[P4F]", "abundance fitness": "-0.366 ± 0.2"},
      {"variant": "EDARSSDDLEQFAKQFKQRRIKLGFTQADVGLALGTLYGNVFSQTTICRFEALQLSFKNMCKLKPLLNKWLEETDSSS", "note": "[P4R]", "abundance fitness": "-0.229 ± 0.056"},
      {"variant": "EDAQSSDDLEQFAKQFKQRRIKLGFTQADVGLALGTLYGNVFSQTTICRFEALQLSFKNMCKLKPLLNKWLEETDSSS", "note": "[P4Q]", "abundance fitness": "-0.24 ± 0.16"},
      {"variant": "EDALSSDDLEQFAKQFKQRRIKLGFTQADVGLALGTLYGNVFSQTTICRFEALQLSFKNMCKLKPLLNKWLEETDSSS", "note": "[P4L]", "abundance fitness": "-0.031 ± 0.061"},
      {"variant": "EDAHSSDDLEQFAKQFKQRRIKLGFTQADVGLALGTLYGNVFSQTTICRFEALQLSFKNMCKLKPLLNKWLEETDSSS", "note": "[P4H]", "abundance fitness": "0.002 ± 0.22"},
      {"variant": "EDYPSSDDLEQFAKQFKQRRIKLGFTQADVGLALGTLYGNVFSQTTICRFEALQLSFKNMCKLKPLLNKWLEETDSSS", "note": "[A3Y]", "abundance fitness": "-0.033 ± 0.28"},
      {"variant": "EDAPSTDDLEQFAKQFKQRRIKLGFTQADVGLALGTLYGNVFSQTTICRFEALQLSFKNMCKLKPLLNKWLEETDSSS", "note": "[S6T]", "abundance fitness": "0.38 ± 0.084"},
      {"variant": "EDAPSDDDLEQFAKQFKQRRIKLGFTQADVGLALGTLYGNVFSQTTICRFEALQLSFKNMCKLKPLLNKWLEETDSSS", "note": "[S6D]", "abundance fitness": "0.125 ± 0.096"},
      {"variant": "EDAPSCDDLEQFAKQFKQRRIKLGFTQADVGLALGTLYGNVFSQTTICRFEALQLSFKNMCKLKPLLNKWLEETDSSS", "note": "[S6C]", "abundance fitness": "0.398 ± 0.14"},
      {"variant": "EDAPSIDDLEQFAKQFKQRRIKLGFTQADVGLALGTLYGNVFSQTTICRFEALQLSFKNMCKLKPLLNKWLEETDSSS", "note": "[S6I]", "abundance fitness": "0.346 ± 0.13"},
      {"variant": "EDAPSHDDLEQFAKQFKQRRIKLGFTQADVGLALGTLYGNVFSQTTICRFEALQLSFKNMCKLKPLLNKWLEETDSSS", "note": "[S6H]", "abundance fitness": "0.308 ± 0.14"},
      {"variant": "EDAPSADDLEQFAKQFKQRRIKLGFTQADVGLALGTLYGNVFSQTTICRFEALQLSFKNMCKLKPLLNKWLEETDSSS", "note": "[S6A]", "abundance fitness": "0.427 ± 0.051"},
      {"variant": "EDAPSRDDLEQFAKQFKQRRIKLGFTQADVGLALGTLYGNVFSQTTICRFEALQLSFKNMCKLKPLLNKWLEETDSSS", "note": "[S6R]", "abundance fitness": "0.365 ± 0.047"},
      {"variant": "EDAPSYDDLEQFAKQFKQRRIKLGFTQADVGLALGTLYGNVFSQTTICRFEALQLSFKNMCKLKPLLNKWLEETDSSS", "note": "[S6Y]", "abundance fitness": "0.043 ± 0.45"},
      {"variant": "EDAPSMDDLEQFAKQFKQRRIKLGFTQADVGLALGTLYGNVFSQTTICRFEALQLSFKNMCKLKPLLNKWLEETDSSS", "note": "[S6M]", "abundance fitness": "0.473 ± 0.07"},
      {"variant": "EDAPSKDDLEQFAKQFKQRRIKLGFTQADVGLALGTLYGNVFSQTTICRFEALQLSFKNMCKLKPLLNKWLEETDSSS", "note": "[S6K]", "abundance fitness": "0.49 ± 0.067"},
      {"variant": "EDAPSNDDLEQFAKQFKQRRIKLGFTQADVGLALGTLYGNVFSQTTICRFEALQLSFKNMCKLKPLLNKWLEETDSSS", "note": "[S6N]", "abundance fitness": "0.178 ± 0.11"},
      {"variant": "EDAPSWDDLEQFAKQFKQRRIKLGFTQADVGLALGTLYGNVFSQTTICRFEALQLSFKNMCKLKPLLNKWLEETDSSS", "note": "[S6W]", "abundance fitness": "0.405 ± 0.063"},
      {"variant": "EDAPSPDDLEQFAKQFKQRRIKLGFTQADVGLALGTLYGNVFSQTTICRFEALQLSFKNMCKLKPLLNKWLEETDSSS", "note": "[S6P]", "abundance fitness": "0.162 ± 0.11"},
      {"variant": "EDAPSQDDLEQFAKQFKQRRIKLGFTQADVGLALGTLYGNVFSQTTICRFEALQLSFKNMCKLKPLLNKWLEETDSSS", "note": "[S6Q]", "abundance fitness": "0.436 ± 0.087"},
      {"variant": "EDAPSGDDLEQFAKQFKQRRIKLGFTQADVGLALGTLYGNVFSQTTICRFEALQLSFKNMCKLKPLLNKWLEETDSSS", "note": "[S6G]", "abundance fitness": "0.321 ± 0.041"},
      {"variant": "EDAPSFDDLEQFAKQFKQRRIKLGFTQADVGLALGTLYGNVFSQTTICRFEALQLSFKNMCKLKPLLNKWLEETDSSS", "note": "[S6F]", "abundance fitness": "0.355 ± 0.15"},
      {"variant": "EDAPSEDDLEQFAKQFKQRRIKLGFTQADVGLALGTLYGNVFSQTTICRFEALQLSFKNMCKLKPLLNKWLEETDSSS", "note": "[S6E]", "abundance fitness": "0.223 ± 0.069"}
    ]}
  ]
}
